According to patent US20220281976A1:

Key:
human CD33 (human) [1] = molecular target: human CD33 (human) (UniProt P20138); assay: flow cytometry, human primary T cells
human CD33 (human) [2] = molecular target: human CD33 (human) (UniProt P20138); assay: flow cytometry, human primary monocytes
human CD33 (human) [3] = molecular target: human CD33 (human) (UniProt P20138); assay: flow cytometry, human primary macrophages
human CD33 (human) [4] = molecular target: human CD33 (human) (UniProt P20138); assay: flow cytometry, human primary dendritic cells

Sequence of human CD33 (human) (P20138 18-364): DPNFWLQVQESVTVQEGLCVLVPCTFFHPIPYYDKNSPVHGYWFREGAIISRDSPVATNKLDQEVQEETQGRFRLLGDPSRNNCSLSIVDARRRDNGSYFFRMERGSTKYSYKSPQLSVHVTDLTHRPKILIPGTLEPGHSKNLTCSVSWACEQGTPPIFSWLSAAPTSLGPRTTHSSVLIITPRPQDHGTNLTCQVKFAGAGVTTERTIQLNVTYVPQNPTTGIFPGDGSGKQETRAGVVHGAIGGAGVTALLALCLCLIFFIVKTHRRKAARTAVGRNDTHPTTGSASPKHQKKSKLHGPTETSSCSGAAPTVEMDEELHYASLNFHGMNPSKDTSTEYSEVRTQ

- T cell MFI (human CD33 (human) [1]): 42.9
- Monocyte MFI (human CD33 (human) [2]): 43.2
- Macrophage MFI (human CD33 (human) [3]): 451
- DC MFI (human CD33 (human) [4]): 178
Substance: isotype control antibody
